Experiment [1] addresses T1, human IL6R (R and D systems cat #227-SR/CF) (human, UniProt P08887 20-358).
T1 chain: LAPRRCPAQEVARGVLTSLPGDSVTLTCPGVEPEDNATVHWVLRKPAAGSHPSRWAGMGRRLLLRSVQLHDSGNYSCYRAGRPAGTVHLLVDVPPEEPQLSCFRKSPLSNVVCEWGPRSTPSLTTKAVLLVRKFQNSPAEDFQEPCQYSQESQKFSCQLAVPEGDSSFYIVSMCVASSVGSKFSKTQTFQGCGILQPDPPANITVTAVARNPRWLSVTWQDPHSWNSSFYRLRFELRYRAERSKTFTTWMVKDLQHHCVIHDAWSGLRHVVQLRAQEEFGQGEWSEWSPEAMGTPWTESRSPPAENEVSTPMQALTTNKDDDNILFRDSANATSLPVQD
Description: ELISA; apparent, printed beside curve. (In general: An ELISA detects its analyte on a solid surface through an enzyme-linked reagent.)

The target in experiment [2] is T1, human IL6R (R and D systems cat …). Description: ELISA; apparent, printed beside curve.

Like-named read-outs stand apart in the source and are kept apart here.

B1: Av1 antibody (antibody, V domains shown)
VH: QVQLQESGPGLVRPSQTLSLTCTVSGYSITSDHAWSWVRQPPGRGLEWIGYISYSGITTYNPSLKSRVTISRDNSKNTLYLQMNSLRAEDTAVYYCARSLARTTAMDYWGQGSLVTVSS
VL: DIQMTQSPSSLSASVGDRVTITCRASQDISSYLNWYQQKPGKAPKLLIYYTSRLHSGVPSRFSGSGSGTDFTFTISSLQPEDIATYYCQQGNTLPYTFGQGTKVEIKR
For the molecule B1, the Kd in experiment [1] is 2.2 nM.

B2: AV1-based activatable anti-IL6R antibody with Generation 1 mask Peptide 1 and substrate MMP/BV728 (antibody, V domains shown)
VH: QVQLQESGPGLVRPSQTLSLTCTVSGYSITSDHAWSWVRQPPGRGLEWIGYISYSGITTYNPSLKSRVTISRDNSKNTLYLQMNSLRAEDTAVYYCARSLARTTAMDYWGQGSLVTVSS
VL: YRSCNWNYVSIFLDCDIQMTQSPSSLSASVGDRVTITCRASQDISSYLNWYQQKPGKAPKLLIYYTSRLHSGVPSRFSGSGSGTDFTFTISSLQPEDIATYYCQQGNTLPYTFGQGTKVEIKR
Take B2: the Kd in experiment [2] was found to be 19.2 nM.

The record behind these values is US20200339694A1 (published 2020).
